Where no end group is shown, it is not given here.
What was measured:
[1] = target: T1, HCV core peptide 49 (hepatitis C virus, HELM PEPTIDE1{[O=C1N[C@H]2[C@H](CS[C@H]2CCCCC(=O)[*:2])N1].S.G.S.G.L.L.S.P.R.G.S.R.P.S.W.G.P.T.D.[am]}$$$$V2.0; SMILES …); assay: peptide EIA
T1 peptide: SGSGLLSPRGSRPSWGPTD

[2] = target: T2, HCV core peptide 48 (hepatitis C virus, HELM PEPTIDE1{[O=C1N[C@H]2[C@H](CS[C@H]2CCCCC(=O)[*:2])N1].S.G.S.G.G.W.L.L.S.P.R.G.S.R.P.S.W.G.P.[am]}$$$$V2.0; SMILES …); assay: peptide EIA, 2 ug/mL IgG (summary table)
T2 construct: also called aa 95-109
T2 peptide: SGSGGWLLSPRGSRPSWGP
Experimental: (§1) The coated plates were kept dry in a sealed foil pouch and stored at <10 degrees C. until ready for use. A peptide coated plate for each test antibody was blocked using 3% BSA in PBS with 0.5% Tween 20. The blocked plates were washed with distilled water and a 2 ug/mL solution of purified IgG from each test sample diluted in BSA block solution was added to each peptide coated well of the blocked plate and allowed to incubate at room temperature for at least one hour. Following incubation the plates were washed with distilled water. A 200 ng/mL solution of peroxidase labeled F(ab′)2 fragment goat anti-mouse IgG Fc fragment specific (Jackson Immunoresearch) in BSA block solution was added to all wells and incubated at room temperature for 30 minutes. The plates were washed with distilled water and o-phenylenediamine substrate was used as the chromagen to generate signal. Plates were read at 492 nm and the results were analyzed.

[3] = target: T1, HCV core peptide 49; assay: peptide EIA, 2 ug/mL IgG (summary table)
Experimental: as §1

[4] = target: T3, HCV core peptide 50 (hepatitis C virus, HELM PEPTIDE1{[O=C1N[C@H]2[C@H](CS[C@H]2CCCCC(=O)[*:2])N1].S.G.S.G.S.P.R.G.S.R.P.S.W.G.P.T.D.P.R.[am]}$$$$V2.0; SMILES …); assay: peptide EIA, 2 ug/mL IgG (summary table)
T3 construct: also called aa 99-113
T3 peptide: SGSGSPRGSRPSWGPTDPR
Experimental: as §1

[5] = target: T4, HCV core peptide 51 (hepatitis C virus, HELM PEPTIDE1{[O=C1N[C@H]2[C@H](CS[C@H]2CCCCC(=O)[*:2])N1].S.G.S.G.R.G.S.R.P.S.W.G.P.T.D.P.R.R.R.[am]}$$$$V2.0; SMILES …); assay: peptide EIA, 2 ug/mL IgG (summary table)
T4 peptide: SGSGRGSRPSWGPTDPRRR
Experimental: as §1

[6] = target: T5, HCV core peptide 52 (hepatitis C virus, HELM PEPTIDE1{[O=C1N[C@H]2[C@H](CS[C@H]2CCCCC(=O)[*:2])N1].S.G.S.G.S.R.P.S.W.G.P.T.D.P.R.R.R.S.R.[am]}$$$$V2.0; SMILES …); assay: peptide EIA, 2 ug/mL IgG (summary table)
T5 peptide: SGSGSRPSWGPTDPRRRSR
Experimental: as §1

[7] = target: T6, HCV core peptide 54 (hepatitis C virus, HELM PEPTIDE1{[O=C1N[C@H]2[C@H](CS[C@H]2CCCCC(=O)[*:2])N1].S.G.S.G.W.G.P.T.D.P.R.R.R.S.R.N.L.G.K.[am]}$$$$V2.0; SMILES …); assay: peptide EIA, 2 ug/mL IgG (summary table)
T6 peptide: SGSGWGPTDPRRRSRNLGK
Experimental: as §1

[8] = target: T7, HCV core peptide 55 (hepatitis C virus, HELM PEPTIDE1{[O=C1N[C@H]2[C@H](CS[C@H]2CCCCC(=O)[*:2])N1].S.G.S.G.P.T.D.P.R.R.R.S.R.N.L.G.K.V.I.[am]}$$$$V2.0; SMILES …); assay: peptide EIA, 2 ug/mL IgG (summary table)
T7 construct: also called aa 109-123
T7 peptide: SGSGPTDPRRRSRNLGKVI
Experimental: as §1

[9] = target: T8, Mut1T110N biotin labeled HCV core peptide (hepatitis C virus, biotin labeled (position not given)); assay: capture EIA; Ab 125 ng/mL; bt-peptide 500 ng/mL
T8 peptide: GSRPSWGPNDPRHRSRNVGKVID

[10] = target: T9, Mut6T110S biotin labeled HCV core peptide (hepatitis C virus, biotin labeled (position not given)); assay: capture EIA; Ab 125 ng/mL; bt-peptide 500 ng/mL
[11] = target: T10, C113WT biotin labeled HCV core peptide (hepatitis C virus, also: biotin labeled, position not given here); assay: capture EIA; Ab 125 ng/mL; bt-peptide 500 ng/mL
T10 peptide: RGSRPSWGPTD

[12] = target: T11, C113T109N biotin labeled HCV core peptide (hepatitis C virus, also: biotin labeled, position not given here); assay: capture EIA; Ab 125 ng/mL; bt-peptide 500 ng/mL
T11 construct: also called C113T110N
T11 peptide: RGSRPSWGPND

[13] = target: T12, 92-133 biotin labeled HCV core peptide (hepatitis C virus, UniProt Q9WMX2 92-133, chain 1: biotin label (bt-pep). Its position and any spacer are not visible in the passages shown.); assay: capture EIA; Ab 125 ng/mL; bt-peptide 500 ng/mL
T12 construct: Only the label 92-133 is printed
T12 peptide: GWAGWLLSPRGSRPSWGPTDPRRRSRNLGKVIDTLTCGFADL
Experimental: (§2) Assay wells were coated with sheep anti-mouse IgG Fc specific antibody and incubated overnight. The coating solution was then removed; the wells blocked using BSA/tween in PBS and then washed with dH2O. […] Next, biotin labeled peptides (diluted to 500 ng/mL in block) were added, the plates incubated for 10 minutes while shaking at 700 rpm and then washed. Peroxidase conjugated streptavidin (diluted to 200 ng/mL in block) was then added to all assay wells, incubated for 20 minutes while shaking at 700 rpm and then washed. Finally, color was developed using OPD and signal quenched using 1N H₂SO₄. Signal was read at 492 nm.

[14] = target: T13, WT1STHV biotin labeled HCV core peptide (hepatitis C virus, biotin labeled (position not given)); assay: capture EIA; Ab 125 ng/mL; bt-peptide 500 ng/mL
T13 peptide: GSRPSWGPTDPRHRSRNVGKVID

[15] = target: T8, Mut1T110N biotin labeled HCV core …; assay: capture EIA; Ab 2000 ng/mL; bt-peptide 500 ng/mL
Experimental: as §2

[16] = target: T9, Mut6T110S biotin labeled HCV core …; assay: capture EIA; Ab 2000 ng/mL; bt-peptide 500 ng/mL
Experimental: as §2

[17] = target: T10, C113WT biotin labeled HCV core peptide; assay: capture EIA; Ab 2000 ng/mL; bt-peptide 500 ng/mL
Experimental: as §2

[18] = target: T11, C113T109N biotin labeled HCV core …; assay: capture EIA; Ab 2000 ng/mL; bt-peptide 500 ng/mL
Experimental: as §2

[19] = target: T12, 92-133 biotin labeled HCV core peptide; assay: capture EIA; Ab 2000 ng/mL; bt-peptide 500 ng/mL
Experimental: as §2

[20] = target: T13, WT1STHV biotin labeled HCV core peptide; assay: capture EIA; Ab 2000 ng/mL; bt-peptide 500 ng/mL
Experimental: as §2

B1: Neo4 mouse monoclonal antibody (antibody, V domains shown)
VH: QIQLKESGPAVIKPSQSLSLTCIVSGFSITSSVYCWQWIRQPPGKGLEWMGRICYDGSVDYSPSITSRGTISRDTSLNKVFFQLSSVTNEDTAMYYCSRENHIDYYDTTYPSFDVWGAGTTVTVSS
VL: DIVLTQSPASLIVSLGQRATISCRASKSVNEYGYTYMHWYQQKPGLPPKLLIYLASNLDSGVPARFSGSGSGTDFTLNIHPVEEEDAATYYCQHSRELPYTFGGGTKLEIKR
notes: Mouse hybridoma antibody, isotype IgG1, purified with Protein G; also called HCV Neo4
binding result [1]: no binding | OD (A492 nm) [2]: 0.04 OD | OD (A492 nm) [3]: 0.05 OD | OD (A492 nm) [4]: 1.03 OD | OD (A492 nm) [5]: 0.96 OD | OD (A492 nm) [6]: 0.93 OD | OD (A492 nm) [7]: 1.01 OD | OD (A492 nm) [8]: 0.97 OD | signal at 492 nm [9]: 0.204 A492 | signal at 492 nm [10]: 1.27 A492 | signal at 492 nm [11]: 0.0599 A492 | signal at 492 nm [12]: 0.0858 A492 | signal at 492 nm [13]: 1.31 A492 | signal at 492 nm [14]: 1.93 A492 | signal at 492 nm [15]: 0.0882 A492 | signal at 492 nm [16]: 1.17 A492 | signal at 492 nm [17]: 0.0766 A492 | signal at 492 nm [18]: 0.059 A492 | signal at 492 nm [19]: 1.31 A492 | signal at 492 nm [20]: 1.9 A492
